Results on 2 molecules are retold here after PMC4678826, “Different genome stability proteins underpin primed and naïve adaptation in E. coli CRISPR-Cas immunity”.

Data set [1] addresses T1, Cas2 (Escherichia coli, UniProt P45956 1-94).
T1 sequence: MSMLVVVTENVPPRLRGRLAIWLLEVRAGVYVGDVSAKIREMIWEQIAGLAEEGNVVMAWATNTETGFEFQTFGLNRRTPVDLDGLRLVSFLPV
Nature of the data set: EMSA; 5 mM EDTA; EMSA: 7 mM Tris-HCl pH 8.5, 9% glycerol, 50 mM NaCl, 100 ug/ml BSA, 5 mM EDTA, 10 min ambient temperature, 6 nM DNA, 5% acrylamide TBE gel at room temperature. Particulars: protein: recombinant; tags: N-terminal His6; chain copies: 2; label: 5'-32P; fork; 25 nt leading arm duplex, 26 nt ssDNA flap. On the technique in general: In EMSA bound probe runs differently from free probe, usually more slowly.

Data set [2] deals with T2, Cas1 (Escherichia coli, UniProt Q46896 1-305).
T2 sequence: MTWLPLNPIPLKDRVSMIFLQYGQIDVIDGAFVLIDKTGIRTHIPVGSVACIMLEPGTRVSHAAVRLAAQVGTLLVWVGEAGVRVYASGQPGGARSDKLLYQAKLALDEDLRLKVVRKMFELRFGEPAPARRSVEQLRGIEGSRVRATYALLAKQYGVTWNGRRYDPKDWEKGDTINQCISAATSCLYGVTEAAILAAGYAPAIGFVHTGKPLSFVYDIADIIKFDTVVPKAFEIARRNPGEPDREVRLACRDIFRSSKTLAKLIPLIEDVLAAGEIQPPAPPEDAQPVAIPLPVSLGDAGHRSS
Nature of the data set: EMSA; 5 mM EDTA; Cas1 0.1-25 nM, DNA 6 nM; EMSA: 7 mM Tris-HCl pH 8.5, 9% glycerol, 50 mM NaCl, 100 ug/ml BSA, 5 mM EDTA, 10 min ambient temperature, 6 nM DNA, 5% acrylamide TBE gel at room temperature. Particulars: protein: recombinant; tags: N-terminal His6; chain copies: 2; label: 5'-32P; fork; 25 nt leading arm duplex, 26 nt ssDNA flap.

For data set [3], the target named is T2, Cas1. Nature of the data set: EMSA; 5 mM EDTA; Cas1 25 nM, DNA 6 nM; similar to fork-1; EMSA: 7 mM Tris-HCl pH 8.5, 9% glycerol, 50 mM NaCl, 100 ug/ml BSA, 5 mM EDTA, 10 min ambient temperature, 6 nM DNA, 5% acrylamide TBE gel at room temperature. Particulars: protein: recombinant; tags: N-terminal His6; chain copies: 2; label: 5'-32P; fork with 4 nt ssDNA gap at branch point.

B1: fork-1 (mixed)
DNA 1: CAACGTCATAGACGATTACATTGCTACATGGAGCTGTCTAGAGGATCCGA
DNA 2: TCGGATCCTCTAGACAGCTCCATGATCACTGGCACTGGTAGAATTCGGC
DNA 3: GCCGAATTCTACCAGTGCCAGTGAT
As to B1, the binding result in data set [1] is recorded as “no binding”; in data set [2] it was “binds”.

B2: fork-1a (mixed)
DNA 1: B1 DNA 1
DNA 2: B1 DNA 2
DNA 3: GCCGAATTCTACCAGTGCCAGTGAT
DNA 4: AATGTAATCGTCTATGACGTTG
B2: the binding result in data set [3] is reported as “binds”.
